The target of assay [1] is T1, human DLL3 on SHP-77 cells (human, UniProt Q9NYJ7 27-618).
T1 construct: also called DLL3-expressing cells (SHP-77)
T1 sequence: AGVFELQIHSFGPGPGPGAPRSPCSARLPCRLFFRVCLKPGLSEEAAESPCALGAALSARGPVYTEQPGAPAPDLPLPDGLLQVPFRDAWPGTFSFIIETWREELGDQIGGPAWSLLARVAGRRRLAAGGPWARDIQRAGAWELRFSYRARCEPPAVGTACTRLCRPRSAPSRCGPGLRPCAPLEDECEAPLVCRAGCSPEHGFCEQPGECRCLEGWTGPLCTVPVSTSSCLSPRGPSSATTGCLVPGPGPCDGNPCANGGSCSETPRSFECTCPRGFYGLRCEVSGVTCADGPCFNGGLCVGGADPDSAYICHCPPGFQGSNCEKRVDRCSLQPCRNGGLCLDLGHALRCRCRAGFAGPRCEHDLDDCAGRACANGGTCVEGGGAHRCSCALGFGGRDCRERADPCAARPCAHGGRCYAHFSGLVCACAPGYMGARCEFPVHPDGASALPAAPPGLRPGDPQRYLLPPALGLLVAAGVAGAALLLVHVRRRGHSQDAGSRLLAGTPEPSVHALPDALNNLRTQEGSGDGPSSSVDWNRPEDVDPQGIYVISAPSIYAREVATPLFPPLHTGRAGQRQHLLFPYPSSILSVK
Kind of assay: flow cytometry, SHP-77 cells. (A flow cytometer gives signals particle by particle.)

Assay [2] has as its target T2, human DLL3 antigen protein (Kactus Biosystems, Cat. No. DLL-HM103) (human, UniProt Q9NYJ7 27-492).
T2 sequence: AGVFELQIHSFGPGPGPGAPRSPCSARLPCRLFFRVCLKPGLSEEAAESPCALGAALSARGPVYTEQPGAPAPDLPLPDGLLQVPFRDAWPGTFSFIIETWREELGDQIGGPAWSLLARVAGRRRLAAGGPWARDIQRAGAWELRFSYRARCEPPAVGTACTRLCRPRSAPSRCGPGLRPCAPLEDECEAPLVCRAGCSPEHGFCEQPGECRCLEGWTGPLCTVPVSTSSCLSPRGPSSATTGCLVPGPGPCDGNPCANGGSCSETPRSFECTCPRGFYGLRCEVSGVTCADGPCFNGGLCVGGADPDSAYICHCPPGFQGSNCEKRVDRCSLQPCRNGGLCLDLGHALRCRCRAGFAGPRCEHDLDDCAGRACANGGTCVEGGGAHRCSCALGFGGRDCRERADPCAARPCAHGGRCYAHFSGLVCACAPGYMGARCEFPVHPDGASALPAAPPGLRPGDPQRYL
Kind of assay: affinity assay with human DLL3 antigen protein (kinetics; method not restated, Biacore as in Example 10 implied).

For assay [3], the target named is T3, human DLL1 (Sino Biological, Cat. No. 11635-H08H) (human, UniProt O00548 18-545).
T3 construct: also called family protein DLL1
T3 sequence: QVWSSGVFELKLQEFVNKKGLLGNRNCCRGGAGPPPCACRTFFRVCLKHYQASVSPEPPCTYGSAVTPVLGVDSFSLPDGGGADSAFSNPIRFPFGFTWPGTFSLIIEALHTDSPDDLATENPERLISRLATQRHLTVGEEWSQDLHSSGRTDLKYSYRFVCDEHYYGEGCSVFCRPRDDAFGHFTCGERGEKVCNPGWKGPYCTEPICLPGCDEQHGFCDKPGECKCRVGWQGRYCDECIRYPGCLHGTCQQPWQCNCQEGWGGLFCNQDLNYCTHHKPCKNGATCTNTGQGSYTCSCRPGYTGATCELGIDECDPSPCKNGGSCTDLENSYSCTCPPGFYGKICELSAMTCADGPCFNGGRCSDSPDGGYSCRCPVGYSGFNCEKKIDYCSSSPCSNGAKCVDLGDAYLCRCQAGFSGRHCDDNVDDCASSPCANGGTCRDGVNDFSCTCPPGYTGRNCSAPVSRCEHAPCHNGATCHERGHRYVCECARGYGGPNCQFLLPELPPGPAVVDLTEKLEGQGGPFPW
Nature of the assay: ELISA, plate coated with human DLL1 at 1 ug/mL, OD 450nm. How it is done: (§1) The antigenic proteins human DLL1 (SinoBiological, cat. No. 11635-H08H) or human DLL4 (SinoBiological, cat. No. 10171-H08H) were dissolved in 1×PBS at a concentration of 1 μg/mL. […] The antigen was washed three times with PBST, 300 μL/well. The antigen was blocked with 1% BSA (in PBST), 200 µL/well, and incubated at 37° C. for 1.5 hours.
(§2) Antibodies to be tested were diluted with 1% BSA (in PBS) at a starting concentration of 100 nM, downwards by a 10-fold gradient for 7 concentrations. The plates were washed three times with PBST, 300 μL/well. The diluted antibody was added to an ELISA plate at 100 μL/well and incubated at room temperature for 2 hours. The antibodies were washed three times with PBST, 300 μL/well. The secondary antibodies (goat anti-human IgG Fc for DLL4 (HRP), 1:20000 dilution; HRP goat anti-mouse IgG (H+L) for DLL1, 1:10000 dilution) were diluted with 1% BSA in PBST. The diluted secondary antibodies were added to the ELISA plate at 100 μL/well and incubated at room temperature for 1 hour. The plates were washed 6 times with PBST, 300 μL/well. The developing solution (TMA and TMB 1:1 mixed) was prepared. The developing solution was added to the plate, 100 μL/well, and incubated in the dark for 5 min. 50 μL of ELISA stop solution was added to the plate and shaken well.

Assay [4] has as its target T2, human DLL3 antigen protein (Kactus …). Kind of assay: SPR (Biacore 8K), antibody captured on anti-human Fc, DLL3 in solution. As to the method:
The affinity and kinetic properties of the humanized anti-DLL3 antibody to human DLL3 were analyzed using a Biacore 8K instrument. CM5 chips were activated with EDC and NHS, followed by immobilization of anti-human Fc murine mAb and blocked with ethanolamine.
Human DLL3 was diluted two-fold serially to serial concentrations (100 nM-0.39 nM) and associated for 90 s and dissociated for 600 s at a flow rate of 50 μL/min.
After completion of each round of the experiment, the captured antibody was removed together with the antigen by washing with a 3M MgCl₂ solution at a flow rate of 30 μL/min for 30 s to complete the regeneration of the chip. The raw data were analyzed using Biacore Insight Evaluation Software (3.0.12.15655) software and fitted with a (1:1) Langmuir model with.
(In SPR one partner is held on a chip, and binding of the other changes the refractive index at the surface.)

The target in assay [5] is T4, human DLL4 (Sino Biological, Cat. No. 10171-H08H) (human, UniProt Q9NR61 27-529).
T4 construct: also called family protein DLL4
Nature of the assay: ELISA, plate coated with human DLL4 at 1 ug/mL, OD 450nm. As to the method: as §1, §2
Background: In an ELISA, binding on a coated surface is turned into a signal by an enzyme label.

For assay [6], the target named is T1, human DLL3 on SHP-77 cells. Nature of the assay: flow cytometry, SHP-77 cells. In outline:
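Trypsinised SHP-77 cells in 1% BSA/PBS were incubated with antibody (100 nM top, 10-fold steps, 7 concentrations) for 1 h at 4° C. Bound antibody was detected with goat anti-human IgG Fc-PE for 0.5 h at 4° C and read as PE mean fluorescence intensity. EC50 and Top MFI were derived from the curves.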
This is another data set of the same source.

Substitutions are numbered along the chain they refer to. Like-named read-outs stand apart in the source and are kept apart here.

T4 sequence (Q9NR61 27-529 limits assumed): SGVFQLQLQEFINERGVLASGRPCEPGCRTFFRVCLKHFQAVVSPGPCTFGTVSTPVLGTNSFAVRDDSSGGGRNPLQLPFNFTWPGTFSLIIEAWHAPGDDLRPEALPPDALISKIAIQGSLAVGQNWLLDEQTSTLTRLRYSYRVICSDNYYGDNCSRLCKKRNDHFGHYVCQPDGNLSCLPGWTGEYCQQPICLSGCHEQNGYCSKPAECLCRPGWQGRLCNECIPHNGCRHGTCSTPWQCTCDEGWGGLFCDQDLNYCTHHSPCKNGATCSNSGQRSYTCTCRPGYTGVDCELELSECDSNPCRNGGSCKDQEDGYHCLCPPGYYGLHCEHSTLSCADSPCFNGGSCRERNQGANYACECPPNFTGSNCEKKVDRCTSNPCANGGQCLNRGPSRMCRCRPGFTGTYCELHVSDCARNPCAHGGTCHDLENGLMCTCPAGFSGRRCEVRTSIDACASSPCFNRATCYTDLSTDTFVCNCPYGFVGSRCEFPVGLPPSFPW

B1: hDLL3-3-1-NA humanized antibody variant (antibody, V domains shown)
VH: EVQLVESGGGLVQPGGSLRLSCAASTYTISSGYMGWFRQAPGKEREGVAAIYIGGSTTLYADSVKGRFTISRDNSKNTLYLQMNSLRAEDTAVYYCAAQLRPNAAYHPLDGRKYNYWGQGTLVTVSS
As a reminder, the EC50 is the concentration that produces a half-maximal response. Low readings indicate higher potency in that assay, high ones lower potency in that assay. The term Kd denotes a measure of binding affinity in units of concentration. Higher therefore signals lower affinity. One may read the koff as the rate constant with which the complex falls apart. For orientation: kon means the second-order rate constant of association. In the case of B1, in assay [1], the EC50 was 0.104 nM and the “Top MFI” value came out at 1270 MFI. In assay [2], this molecule had a Kd of 0.105 nM, a koff of 0.000135 s⁻¹ and a kon of 1.29e+06 M⁻¹ s⁻¹.

B2: hDLL3-3-1-QS humanized antibody variant (antibody, V domains shown)
VH: B1 VH with N103Q, A104S
With B2, in assay [1], the midpoint of the response, the EC50, lay at 0.055 nM and the “Top MFI” value worked out at 1010 MFI. In assay [2], binding was characterised by a dissociation constant (Kd) of 5.02 nM, the koff stood at 0.00611 s⁻¹ and the kon was 1.22e+06 M⁻¹ s⁻¹.

B3: H2-45E4D7 mouse hybridoma-derived humanized anti-DLL3 antibody (antibody, V domains shown)
VH: QVQLVQSGAEVKKPGASVKVSCKASGYTFTSHWITWVRQAPGQGLEWMGDIYPISGSTNNNEKFRNRVTMTRDTSTSTVYMELSSLRSEDTAVYYCAKIITVGGAYVMDYWGQGTLVTVSS
VL: EIVMTQSPATLSVSPGERATLSCRASQSVRNNLHWYQQKPGQAPRLLIKYVSQSISGIPARFSGSGSGTEFTLTISSLQSEDFAVYYCQQSNSWPLTFGGGTKLEIK
Turning to B3, the binding result in assay [3] is given as “no binding (tested: 100 nM)”. In assay [4], the Kd was determined as 0.246 nM, the koff is 5.78e-05 s⁻¹ and the kon came out at 235000 M⁻¹ s⁻¹. Also, the binding result in assay [5] was “no binding (tested: 100 nM)”. Further, in assay [6], a half-maximal response (EC50) required 2.23 nM and the “Top MFI” value worked out at 1610 MFI.

The values are drawn from patent US20240239878A1 (SHANGHAI QILU PHARMACEUTICAL RESEARCH AND DEVELOPMENT CENTRE, published 2024).
